# Data from article PMC10080691, “Enzyme-Responsive Double-Locked Photodynamic Molecular Beacon for Targeted Photodynamic Anticancer Therapy” (Journal of the American Chemical Society, 2023).
# Key:
# [1] = system: A549 human lung carcinoma cells; assay: Intracellular fluorescence by flow cytometry; type: cell-based
# Experimental: The cellular uptake of 1 was studied using a range of cell lines with different expression levels of MMP-2, namely the MMP-2-overexpressed A549 human lung carcinoma cells[73] and U-87 MG human glioblastoma cells,[74] as well as the low MMP-2-expressed HeLa human cervical carcinoma cells[75] and HEK-293 human embryonic kidney normal cells.[76] The cells were incubated with 1 (2 μM) in a serum-free medium for 1 h and then in the neat medium for a further 6 h to provide sufficient time for enzymatic cleavage. […] Similar results were obtained by flow cytometry (Figure 5b). The quantified fluorescence intensity for A549 cells was 3.8-fold that for HEK-293 cells. […] After subsequent cleavage of the remaining GFLG linker by the intrinsic cathepsin B inside the cells, the probe was activated favorably, leading to higher intracellular fluorescence intensity.
# The cells were pretreated with SB-3CT (10 μM) and/or CA-074 Me (25 μM) or simply the neat medium for 2 h, followed by incubation with 1 (2 μM) for a further 1 h. […] The fluorescence images of the cells under all these conditions were captured using a confocal laser scanning microscope. […] For the cells with pretreatment with both inhibitors, fluorescence due to 1 could hardly be seen. Similarly, for the cells being incubated with 14, the intracellular fluorescence was negligible. […]
# Confocal Fluorescence Microscopic Studies […]
# skin of nude mice = assay: In vivo photodynamic effect on skin; conditions: intravenous 20 nmol
# Experimental: The mice were first intravenously injected with either 1 or 6 (20 nmol) in 200 μL of distilled water containing 3% DMSO and 0.5% Tween 80 (v/v). The whole-body fluorescence images of the mice were monitored using an infrared imaging system over a period of 24 h.
# At 6 h post-injection of 1 or 6, the mice were irradiated with the aforementioned laser source (680 nm, 0.3 W cm^–2) on a region of the skin (marked in Figure 8d) for 10 min, which were the conditions used for in vivo PDT as described above. The appearance of the irradiated region was then examined after 24 h. […] The skin tissues of these mice were then harvested and examined using the TUNEL assay.
# Further evidence was obtained by the H&E staining of these skin tissues.
# Female Balb/c nude mice (20–25 g) were injected with a solution of 1 or 6 (20 nmol) in 200
# μL of distilled water containing 3% DMSO and 0.5% Tween 80 (v/v) through the tail vein.
# vivo fluorescence imaging was performed before and after the injection at different time points
# up to 24 h with an Odyssey infrared imaging system (excitation wavelength = 680 nm, emission
# wavelength ≥ 700 nm). The images were digitized and analyzed using an Odyssey imaging
# Three mice were used for each comp ound. To study the
# photodynamic effect of these two compounds on the skin of the mice, a region of the skin was
# illuminated with a diode laser (Biolitec Ceralas) at 680 nm operated at 0.24 W at 6 h post -
# injection of these compounds. Illumination on a circu lar spot with a diameter of 1.0 cm (fluence
# rate = 0.3 W cm-2) for 10 min led to a total fluence of 180 J cm–2. After 24 h, the mice were
# sacrificed, and then the skin tissues were harvested. They were fixed with 4%
# paraformaldehyde, dehydrated in an alcohol series, mixed with solutions of xylene and paraffin,
# and then embedded in paraffin. The tissue sections were prepared by a Leica RM2235
# microtome. After the H&E staining, the tissues were examined with a Nikon Eclipse Ni-E
# upright fluorescence microscope. For the TUNEL staining assay, the skin tissues were dewaxed
# and rehydrated in an alcohol series and then incubated with a Proteinase K solution (20 μg mL-
# 1) at room temperature for 30 min. After being rinsed with PBS three times, the tissue slides
# were stained with 50 μL of Nucleotide Mix (a mixture of terminal deoxynucleotidyl transferase
# and cyanine 3-labeled deoxyuridine triphosphate) of the one -step TUNEL assay kit (Beyotime,
# Shanghai, China), and then the nuclei were stained with Hochest 33342 (10 μM) for 1 h at
# room temperature. After being rinsed with PBS for three times, the tissue slides were examined
# with a Zeiss LSM 880 NLO laser scanning microscope equipped with two solid-state 405 and
# 561 nm lasers. Hoechst 33342 was excited at 405 nm and its fluorescence was monitored at
# 410−500 nm, while the TUNEL staining cyanine 3 dye was excited at 561 nm and its
# fluorescence was monitored at 570−620 nm.
# [2] = with laser irradiation (680 nm, 0.3 W cm-2, 10 min), 24 h after
smiles,measurement,setting,value
CCN(CC)c1ccc2nc3ccc(/N=N/c4ccc(N(C)CCCNC(=O)OC[C@@H]5[C@@H]6CCc7nnn(CC(=O)NCCCC[C@@H]8NC(=O)CNC(=O)[C@H](CCCCN)NC(=O)[C@H](CCCNC(=N)N)NC(=O)[C@H](C(C)C)NC(=O)CNC(=O)[C@H](CC(C)C)NC(=O)[C@@H]9CCCN9C(=O)[C@H](CCCCN)NC(=O)[C@@H](N)CSCc9cc(COc%10ccc(C%11=C%12C(C)=C(I)C(/C=C/c%13ccc(OCCOCCOCCOC)cc%13)=[N+]%12[B-](F)(F)n%12c(/C=C/c%13ccc(OCCOCCOCCOC)cc%13)c(I)c(C)c%12%11)cc%10)cc(c9)CSC[C@@H](C(N)=O)NC(=O)[C@H](CCCCN)NC(=O)[C@H](CCCCN)NC(=O)CNC(=O)[C@H](CC(C)C)NC(=O)[C@H](Cc9ccccc9)NC(=O)CNC(=O)[C@H](CCCCN)NC(=O)CNC8=O)c7CC[C@@H]65)cc4)cc3[n+](-c3ccccc3)c2c1 [compound 1],"intracellular fluorescence intensity, A549 relative to HEK-293 cells","[1]; 2 μM, 1 h in serum-free medium, then 6 h in neat medium, three independent experiments",3.8 fold
same,"intracellular fluorescence intensity, untreated cells relative to cells pretreated with the two inhibitors","[1]; A549, 2 μM 1 h + 6 h, SB-3CT (10 μM) and CA-074 Me (25 μM) 2 h pretreatment",5.6 fold
same,appearance of irradiated skin region after 24 h,"skin of nude mice; laser 680 nm, 0.3 W cm-2, 10 min at 6 h post-injection",no noticeable change
same,H&E staining of skin tissue,skin of nude mice; [2],virtually intact
same,TUNEL assay of skin tissue,skin of nude mice; [2],negligible
same,H&E staining of skin tissue,skin of nude mice; without laser irradiation,virtually intact
same,TUNEL assay of skin tissue (fluorescence intensity),skin of nude mice; without laser irradiation,negligible
